Experimental findings from article PMC10967716 are described below.

The target of this assay is α-Methylacyl-CoA racemase from Mycobacterium tuberculosis, wild-type (M. tuberculosis) (UniProt O06543). Kind of assay: SEC. A general note: In gel filtration, larger molecules generally elute earlier.

For “α-Methylacyl-CoA racemase from Mycobacterium tuberculosis, wild-type (from UniProt O06543 1-360) (enzyme)”, the stoichiometry N (in general, the number of molecules, sites or subunits per partner or assembly) came out at 2.
